Experimental data taken from patent publication US20040023916A1 (NATIONAL INSTITUTES OF HEALTH NIH, published 2004).

Biological target: T1, mouse Plasma Cell Membrane Glycoprotein-1 (PC-1) (mouse, UniProt P06802 1-906, limits assumed)
T1 construct: Measured as NTPPPH activity, which in these cells also includes the isozyme B10; also called Enpp1; NPP1
T1 sequence (looked up): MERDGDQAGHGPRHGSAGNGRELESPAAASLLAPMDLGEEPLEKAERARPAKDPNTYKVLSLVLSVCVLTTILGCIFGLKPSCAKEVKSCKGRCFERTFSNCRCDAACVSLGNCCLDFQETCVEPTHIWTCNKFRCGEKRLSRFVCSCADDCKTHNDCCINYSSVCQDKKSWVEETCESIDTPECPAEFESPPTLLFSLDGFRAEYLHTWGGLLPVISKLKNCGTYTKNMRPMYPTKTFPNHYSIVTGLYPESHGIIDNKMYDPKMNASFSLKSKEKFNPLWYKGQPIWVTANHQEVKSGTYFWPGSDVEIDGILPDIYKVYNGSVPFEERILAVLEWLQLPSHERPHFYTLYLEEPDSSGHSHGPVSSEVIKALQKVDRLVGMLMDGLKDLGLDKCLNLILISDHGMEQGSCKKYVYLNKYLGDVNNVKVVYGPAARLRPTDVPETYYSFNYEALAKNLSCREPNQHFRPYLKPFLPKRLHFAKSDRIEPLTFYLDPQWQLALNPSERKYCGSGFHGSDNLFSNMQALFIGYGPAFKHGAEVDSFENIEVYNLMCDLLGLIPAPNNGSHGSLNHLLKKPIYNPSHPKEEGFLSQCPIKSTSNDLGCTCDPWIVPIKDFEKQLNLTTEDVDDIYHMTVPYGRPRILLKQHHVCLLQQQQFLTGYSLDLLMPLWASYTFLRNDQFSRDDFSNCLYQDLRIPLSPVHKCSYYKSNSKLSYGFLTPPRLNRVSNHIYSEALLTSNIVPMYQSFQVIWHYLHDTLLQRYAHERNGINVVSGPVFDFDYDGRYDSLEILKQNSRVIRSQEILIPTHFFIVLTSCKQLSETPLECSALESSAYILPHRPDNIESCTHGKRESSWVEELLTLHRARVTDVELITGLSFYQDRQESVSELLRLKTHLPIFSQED
Test: co-immunoprecipitation from osteoblast cell lysates, enzyme activity on beads
Excerpt: Paradoxically, transfection of wild-type TNAP was associated with a significant increase in cell-associated NTPPPH, and an even greater increase in MV fraction-associated NTPPPH activity in MC3T3 cells, but no significant change in activity of transglutaminase activity, which served as a control enzyme for these experiments. […] Specifically, immunoprecipitation of TNAP from osteoblast cell lysates isolated >85% of the TNAP activity, but was not associated with any co-immunoprecipitation of NTPPPH activity (starting mean cell lysate NTPPPH 1.7 Units, and alkaline phosphatase 4.3 Units; beads after immunoprecipitation with antibody to TNAP had mean of 0.09 Units NTPPPH and 4.1 Units alkaline phosphatase; beads after immunoprecipitation with antibody to PC-1 had mean of 1.3 Units NTPPPH and 0.11 Units alkaline phosphatase, n=5).

B1: mouse tissue-nonspecific alkaline phosphatase (TNAP) (enzyme, UniProt P09242 18-501, looked up)
chain: FVPEKERDPSYWRQQAQETLKNALKLQKLNTNVAKNVIMFLGDGMGVSTVTAARILKGQLHHNTGEETRLEMDKFPFVALSKTYNTNAQVPDSAGTATAYLCGVKANEGTVGVSAATERTRCNTTQGNEVTSILRWAKDAGKSVGIVTTTRVNHATPSAAYAHSADRDWYSDNEMPPEALSQGCKDIAYQLMHNIKDIDVIMGGGRKYMYPKNRTDVEYELDEKARGTRLDGLDLISIWKSFKPRHKHSHYVWNRTELLALDPSRVDYLLGLFEPGDMQYELNRNNLTDPSLSEMVEVALRILTKNLKGFFLLVEGGRIDHGHHEGKAKQALHEAVEMDQAIGKAGAMTSQKDTLTVVTADHSHVFTFGGYTPRGNSIFGLAPMVSDTDKKPFTAILYGNGPGYKVVDGERENVSMVDYAHNNYQAQSAVPLRHETHGGEDVAVFAKGPMAHLLHGVHEQNYIPHVMAYASCIGANLDHCAWAG
notes: The lysates are called only 'osteoblast cell lysates'; Some MC3T3 cells were transfected with human TNAP, so the species in this experiment is not certain; also called Akp2
B1: no binding.
